Patent publication US20050268353A1

Tests used:
[1] = target: Midgut brush border membranes of Helicoverpa armigera larvae; assay: 125I-labelled HaSV particles (103,000 cpm) incubated 1 h with midgut brush border membranes, pelleted, washed three times, gamma counting
[2] = target: Midgut brush border membranes of Helicoverpa armigera larvae; assay: 125I-labelled HaSV particles with midgut brush border membranes boiled before the incubation (control)
[3] = target: Midgut brush border membranes of Helicoverpa armigera larvae; assay: 125I-labelled HaSV particles with midgut brush border membranes preincubated 1 h with unlabelled HaSV (self-competition)

For “Helicoverpa armigera stunt virus (HaSV) particles (from UniProt Q82462 1-647)”, the cpm remaining with the membranes after washing [1] was 8500 cpm, the cpm remaining with the membranes after washing [2] was 1700 cpm and the cpm remaining with the membranes after washing [3] was 2100 cpm.
